Assay results as given in paper PMC7334434.

Target: 14-3-3β (UniProt P31946)
Assay: co-IP
Conditions: reference: wild type

Row | Substance | binding against the reference (sites S138) | binding against the reference (sites S142)
1 | TFEB (from UniProt P19484) S138A | weaker | 
2 | TFEB (from UniProt P19484) S142A |  | weaker
